Source: US12467929

Key:
[1] = target: recombinant UBE3A protein (Homo sapiens (Human)) (UniProt Q05086); experiment: 3-step Simoa; capture GTX; UBE3A 0.122 ng/ml
[2] = target: recombinant UBE3A protein (Homo sapiens (Human)) (UniProt Q05086); experiment: 2-step Simoa; capture GTX; UBE3A 500 ng/ml
[3] = target: recombinant UBE3A protein (Homo sapiens (Human)) (UniProt Q05086); experiment: 3-step Simoa; capture GTX; UBE3A 125 ng/ml
[4] = target: recombinant UBE3A protein (Homo sapiens (Human)) (UniProt Q05086); experiment: Simoa; capture GTX; SBG 75 pm; UBE3A 0.00128 ng/ml
[5] = target: recombinant UBE3A protein (Homo sapiens (Human)) (UniProt Q05086); experiment: Simoa; capture GTX + helper beads; 3E5 0.4 ug/ml; UBE3A 0.00128 ng/ml
[6] = target: recombinant UBE3A protein (Homo sapiens (Human)) (UniProt Q05086); experiment: Simoa; capture GTX; 3E5 0.8 ug/ml; UBE3A 0.800 ng/ml
[7] = target: recombinant UBE3A protein (Homo sapiens (Human)) (UniProt Q05086); experiment: Simoa; capture GTX; 3E5 0.2 ug/ml; UBE3A 4.00 ng/ml
[8] = target: recombinant UBE3A protein (Homo sapiens (Human)) (UniProt Q05086); experiment: Simoa; capture GTX; SBG 100 pm; UBE3A 20.0 ng/ml
[9] = target: recombinant UBE3A protein (Homo sapiens (Human)) (UniProt Q05086); experiment: Simoa; capture GTX; SBG 100 pm; UBE3A 4.00 ng/ml
[10] = target: recombinant UBE3A protein (Homo sapiens (Human)) (UniProt Q05086); experiment: Simoa; capture GTX, no helper beads; 3E5 0.1 ug/ml; UBE3A 20.0 ng/ml
[11] = target: recombinant UBE3A protein (Homo sapiens (Human)) (UniProt Q05086); experiment: Simoa; capture GTX; 3E5 0.4 ug/ml; UBE3A 20.0 ng/ml
[12] = target: recombinant UBE3A protein (Homo sapiens (Human)) (UniProt Q05086); experiment: Simoa; capture GTX + helper beads; 3E5 0.2 ug/ml; UBE3A 0.0320 ng/ml
[13] = target: recombinant UBE3A protein (Homo sapiens (Human)) (UniProt Q05086); experiment: Simoa; capture GTX; 3E5 0.8 ug/ml; UBE3A 0.160 ng/ml
[14] = target: recombinant UBE3A protein (Homo sapiens (Human)) (UniProt Q05086); experiment: Simoa head-to-head, Table 11; capture MS 2F6; UBE3A 100 ng/ml
[15] = target: recombinant UBE3A protein (Homo sapiens (Human)) (UniProt Q05086); experiment: Simoa; capture GTX + helper beads; 3E5 0.1 ug/ml; UBE3A 20.0 ng/ml
[16] = target: recombinant UBE3A protein (Homo sapiens (Human)) (UniProt Q05086); experiment: Simoa; capture GTX; SBG 75 pm; UBE3A 20.0 ng/ml
[17] = target: recombinant UBE3A protein (Homo sapiens (Human)) (UniProt Q05086); experiment: Simoa; capture GTX; 3E5 0.1 ug/ml; UBE3A 4.00 ng/ml
[18] = target: recombinant UBE3A protein (Homo sapiens (Human)) (UniProt Q05086); experiment: Simoa; capture GTX; 3E5 0.8 ug/ml; UBE3A 0.0320 ng/ml
[19] = target: recombinant UBE3A protein (Homo sapiens (Human)) (UniProt Q05086); experiment: Simoa head-to-head, Table 10; capture MS 2F6; UBE3A 0.16 ng/ml
[20] = target: recombinant UBE3A protein (Homo sapiens (Human)) (UniProt Q05086); experiment: Simoa; capture GTX + helper beads; 3E5 0.2 ug/ml; UBE3A 0.160 ng/ml

UniProt Q05086, sequence (Q05086 whole entry): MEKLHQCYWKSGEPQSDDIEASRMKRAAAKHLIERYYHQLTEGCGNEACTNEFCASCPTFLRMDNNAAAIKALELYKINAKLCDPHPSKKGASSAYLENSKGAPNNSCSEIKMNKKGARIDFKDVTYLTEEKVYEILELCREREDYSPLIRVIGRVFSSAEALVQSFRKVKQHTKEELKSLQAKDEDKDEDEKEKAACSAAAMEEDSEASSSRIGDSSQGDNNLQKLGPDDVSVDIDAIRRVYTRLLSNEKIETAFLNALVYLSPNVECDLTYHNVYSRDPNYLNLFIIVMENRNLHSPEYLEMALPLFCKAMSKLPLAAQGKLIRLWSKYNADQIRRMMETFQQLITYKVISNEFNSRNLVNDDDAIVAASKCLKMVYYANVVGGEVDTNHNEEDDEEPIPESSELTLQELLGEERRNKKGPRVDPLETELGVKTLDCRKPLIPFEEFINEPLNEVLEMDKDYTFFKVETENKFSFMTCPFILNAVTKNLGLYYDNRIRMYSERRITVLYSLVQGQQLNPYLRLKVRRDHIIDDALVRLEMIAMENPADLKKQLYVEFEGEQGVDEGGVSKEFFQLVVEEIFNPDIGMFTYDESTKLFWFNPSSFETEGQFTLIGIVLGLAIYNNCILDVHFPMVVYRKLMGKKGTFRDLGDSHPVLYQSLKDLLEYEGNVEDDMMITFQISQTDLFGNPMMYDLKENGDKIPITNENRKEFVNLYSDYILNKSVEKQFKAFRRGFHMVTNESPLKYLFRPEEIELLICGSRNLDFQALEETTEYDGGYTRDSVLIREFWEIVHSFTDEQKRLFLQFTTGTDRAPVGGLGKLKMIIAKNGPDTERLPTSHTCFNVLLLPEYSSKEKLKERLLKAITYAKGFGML

With NB500-240 (Novus) (antibody) as the substance, how does the AEB1 [1] read?
The AEB1 was 0.0021.

And the AEB2 [1]?
Its AEB2 is 0.002.

What about the Ave AEB [1] of the same substance?
The Ave AEB was 0.002.

What about the Signal to Background [1] of the same substance?
The Signal to Background was 0.624.

What about the AEB1 [2] of the same substance?
Its AEB1 is 0.303.

What about the AEB2 [2] of the same substance?
The AEB2 was 0.308.

And the Ave AEB [2]?
Its Ave AEB is 0.305.

And the Signal to Background [2]?
The Signal to Background was 93.4.

What about the AEB1 [3] of the same substance?
Its AEB1 is 0.122.

And the AEB2 [3]?
The AEB2 was 0.122.

And the Ave AEB [3]?
Its Ave AEB is 0.122.

And the Signal to Background [3]?
Its Signal to Background is 55.8.

What does the source list for “anti-UBE3A antibody 3E5 (SAB1404508-100 ug, Millipore-Sigma)”?
AEB1 [4]: 0.0046; AEB2 [4]: 0.0045; AEB3 [4]: 0.0047; Average AEB [4]: 0.0046; Signal to Background [4]: 1.06; AEB1 [5]: 0.0222; AEB2 [5]: 0.0178; Average AEB [5]: 0.02; Signal to Background [5]: 1.02; AEB1 [6]: 0.589; AEB2 [6]: 0.605; AEB3 [6]: 0.615; Average AEB [6]: 0.603; Signal to Background [6]: 4.92; AEB1 [7]: 1.18; AEB2 [7]: 2.32; AEB3 [7]: 1.18; Average AEB [7]: 1.56; Signal to Background [7]: 39.7; AEB1 [8]: 3.96; AEB2 [8]: 3.97; AEB3 [8]: 4.1; Average AEB [8]: 4.01; Signal to Background [8]: 478; AEB1 [9]: 0.739; AEB2 [9]: 0.78; AEB3 [9]: 0.707; Average AEB [9]: 0.742; Signal to Background [9]: 88.5; AEB1 [10]: 3.57; AEB2 [10]: 3.21; Average AEB [10]: 3.39; Signal to Background [10]: 592; AEB1 [11]: 6.82; AEB2 [11]: 7.9; AEB3 [11]: 7.67; Average AEB [11]: 7.46; Signal to Background [11]: 119; AEB1 [12]: 0.0226; AEB2 [12]: 0.0236; Average AEB [12]: 0.0231; Signal to Background [12]: 2.39; AEB1 [13]: 0.235; AEB2 [13]: 0.263; AEB3 [13]: 0.226; Average AEB [13]: 0.241; Signal to Background [13]: 1.97; AEB1 [14]: 1.79; AEB2 [14]: 1.84; Ave AEB [14]: 1.81; Signal to Background [14]: 479; AEB1 [15]: 3.37; AEB2 [15]: 3.48; Average AEB [15]: 3.42; Signal to Background [15]: 597; AEB1 [16]: 2.44; AEB2 [16]: 2.81; AEB3 [16]: 2.75; Average AEB [16]: 2.67; Signal to Background [16]: 611; AEB1 [17]: 0.848; AEB2 [17]: 0.891; AEB3 [17]: 0.878; Average AEB [17]: 0.873; Signal to Background [17]: 45.3; AEB1 [18]: 0.144; AEB2 [18]: 0.138; AEB3 [18]: 0.152; Average AEB [18]: 0.145; Signal to Background [18]: 1.18; AEB1 [19]: 0.0183; AEB2 [19]: 0.0155; Ave AEB [19]: 0.0169; Signal to Background [19]: 1.25; AEB1 [20]: 0.0751; AEB2 [20]: 0.0703; Average AEB [20]: 0.0727; Signal to Background [20]: 7.51
